Tests used:
[1] = target: T1, Recombinant mouse FcγRI [CD64], Gln25-Pro297 with C-terminal 6-His tag (mouse, UniProt P26151 25-297); experiment: SPR (Biacore X), Mab on CM4 chip, m-FcγRI as analyte, heterogeneous ligand model, major component; major component (81%), higher value
T1 construct: range 25-297; Soluble form bought from R&D Systems; also called m-FcγRI
T1 sequence: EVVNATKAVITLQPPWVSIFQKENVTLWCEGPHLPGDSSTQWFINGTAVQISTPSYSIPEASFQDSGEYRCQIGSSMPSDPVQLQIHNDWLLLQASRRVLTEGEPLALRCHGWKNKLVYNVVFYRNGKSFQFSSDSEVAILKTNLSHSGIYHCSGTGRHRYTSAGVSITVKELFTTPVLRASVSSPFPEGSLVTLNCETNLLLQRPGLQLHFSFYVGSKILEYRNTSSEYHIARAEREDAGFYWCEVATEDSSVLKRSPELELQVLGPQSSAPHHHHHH
Protocol: (§1) 2017 RU of c515H7 Mab were immobilized using the amine coupling kit chemistry on the second flowcell (FC2) of a CM4 sensorchip. The first flowcell (FC1) activated by NHS and EDC mixture and des-activated by ethanolamine served as the reference surface to check and subtract the non specific interaction between the analyte (Fc gamma receptors) and the sensorchip matrix.
(§2) The kinetic experiments were carried out at 25° Celsius at a flow rate of 30 μl/min. The HBS-EP buffer was used either as the running buffer or for the preparation of analyte solutions. The analyte solutions were injected during 90 seconds (association phase) with a 90 seconds delay (dissociation phase). An injection of running buffer as analyte was used as a double reference. All the sensorgrams were corrected by this double reference sensorgram.
According to this model, the c515H7 Mab Fc domain may be regarded as a mixture of two components.

[2] = target: T2, Recombinant human FcγRI [CD64], Gln16-Pro288 with C-terminal 6-His tag (human, UniProt P12314 16-288); experiment: SPR (Biacore X): h-FcγRI injected over c515H7 Mab immobilized on a CM4 sensorchip; heterogeneous ligand model, minor component (0%)
T2 construct: range 16-288; Soluble form bought from R&D Systems; also called h-FcγRI
T2 sequence (P12314 other isoform, or with tags, fused parts or gaps limits assumed): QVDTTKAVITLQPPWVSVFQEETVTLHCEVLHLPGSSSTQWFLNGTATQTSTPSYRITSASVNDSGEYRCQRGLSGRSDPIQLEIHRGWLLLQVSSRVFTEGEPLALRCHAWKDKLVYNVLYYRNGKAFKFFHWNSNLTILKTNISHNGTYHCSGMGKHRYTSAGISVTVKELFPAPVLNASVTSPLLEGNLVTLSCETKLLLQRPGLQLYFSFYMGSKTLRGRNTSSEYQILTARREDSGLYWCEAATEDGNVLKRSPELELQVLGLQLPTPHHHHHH
Protocol: as §1, §2
(§3) After each injection of the analyte, the sensorchip was regenerated by injection of 20 mM NaOH, 75 mM NaCl solution.

[3] = target: T1, Recombinant mouse FcγRI [CD64], …; experiment: SPR (Biacore X): m-FcγRI injected over c515H7 Mab immobilized on a CM4 sensorchip; heterogeneous ligand model, major component (81%)
Protocol: as §1, §2, §3

[4] = target: T2, Recombinant human FcγRI [CD64], …; experiment: SPR (Biacore X): h-FcγRI injected over c515H7 Mab immobilized on a CM4 sensorchip; heterogeneous ligand model, major component (100%)
Protocol: as §1, §2, §3

[5] = target: T3, Recombinant mouse FcγRIII [CD16], Ala31-Thr215 with C-terminal 10-His tag (mouse, UniProt P08508 31-215); experiment: SPR (Biacore X), Mab on CM4 chip, m-FcγRIII as analyte, Langmuïr model; lower of the two Langmuïr-fit values
T3 construct: Soluble form bought from R&D Systems; also called m-FcγRIII
T3 sequence: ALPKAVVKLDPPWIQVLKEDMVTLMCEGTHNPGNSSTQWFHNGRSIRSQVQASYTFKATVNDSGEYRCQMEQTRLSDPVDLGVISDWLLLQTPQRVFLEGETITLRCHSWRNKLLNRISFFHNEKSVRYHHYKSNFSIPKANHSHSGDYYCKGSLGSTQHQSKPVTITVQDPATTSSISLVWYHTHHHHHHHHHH
Protocol: as §1, with “1964” for “2017”, “hz515H7VH1D76NVL2” for “c515H7”
as §2
Using the Langmuïr model the constant of dissociation was around 17 and 18 nM.

[6] = target: T1, Recombinant mouse FcγRI [CD64], …; experiment: SPR (Biacore X): m-FcγRI injected over hz515H7VH1D76NVL2 Mab immobilized on a CM4 sensorchip; heterogeneous ligand model, minor component (18%)
Protocol: as §1, with “1964” for “2017”, “hz515H7VH1D76NVL2” for “c515H7”
as §2
(§4) After each injection of the analyte, the sensorchip was regenerated by injection of either 20 mM NaOH solution after h-FcγRI and m-FcγRIII or 10 mM NaOH after h-FcγRIIIA and m-FcγRI.

[7] = target: T2, Recombinant human FcγRI [CD64], …; experiment: SPR (Biacore X): h-FcγRI injected over hz515H7VH1D76NVL2 Mab immobilized on a CM4 sensorchip; heterogeneous ligand model, major component (99%)
Protocol: The experiments were carried out using a Biacore X device. The soluble forms of the four Fc […]gamma receptors used in this study were purchased from R&D Systems: […]

[8] = target: T1, Recombinant mouse FcγRI [CD64], …; experiment: SPR (Biacore X): m-FcγRI injected over hz515H7VH1D76NVL2 Mab immobilized on a CM4 sensorchip; Langmuir model
Protocol: as §1, with “1964” for “2017”, “hz515H7VH1D76NVL2” for “c515H7”
as §2, §4

[9] = target: T3, Recombinant mouse FcγRIII [CD16], …; experiment: SPR (Biacore X): m-FcγRIII injected over hz515H7VH1D76NVL2 Mab immobilized on a CM4 sensorchip; heterogeneous ligand model, minor component (34%)

B1: chimeric antibody c515H7 (antibody, human IgG1, kappa)
heavy: not shown
light: DIVMSQSPSSLAVSAGEKVTMSCKSSQSLFNSRTRKNYLAWYQQKPGQSPKLLIYWASARDSGVPARFTGSGSETYFTLTISRVQAEDLAVYYCMQSFNLRTFGGGTKLEIKRTVAAPSVFIFPPSDEQLKSGTASVVCLLNNFYPREAKVQWKVDNALQSGNSQESVTEQDSKDSTYSLSSTLTLSKADYEKHKVYACEVTHQGLSSPVTKSFNRGEC
notes: Human IgG1/kappa constant domains; also called c515H7 Mab; chimeric 515H7
Kd [1]: ~450 nM
Kd [2]: 0.06 nM
koff [2]: 7.3e-05 s⁻¹
kon [2]: 1.14e+06 M⁻¹ s⁻¹
Kd [3]: 416 nM
koff [3]: 0.138 s⁻¹
kon [3]: 332000 M⁻¹ s⁻¹
Kd [4]: 1.22 nM
koff [4]: 0.000599 s⁻¹
kon [4]: 493000 M⁻¹ s⁻¹

B2: humanized antibody Hz515H7 VH1 D76N VL2 (antibody, human IgG1, kappa)
heavy: not shown
light: DIVMTQSPSSLAVSLGERATMSCKSSQSLFNSRTRKNYLAWYQQKPGQSPKLLIYWASARDSGVPARFTGSGSETYFTLTISRVQAEDLAVYYCMQSFNLRTFGQGTKVEIKRTVAAPSVFIFPPSDEQLKSGTASVVCLLNNFYPREAKVQWKVDNALQSGNSQESVTEQDSKDSTYSLSSTLTLSKADYEKHKVYACEVTHQGLSSPVTKSFNRGEC
notes: IgG1/kappa; also called hz515H7VL2; hz515H7-1
Kd [5]: ~17 nM
Kd [6]: 90.9 nM
koff [6]: 0.022 s⁻¹
kon [6]: 242000 M⁻¹ s⁻¹
Kd [7]: 0.69 nM
koff [7]: 0.0004 s⁻¹
kon [7]: 579000 M⁻¹ s⁻¹
Kd [8]: 77 nM
koff [8]: 0.0648 s⁻¹
kon [8]: 842000 M⁻¹ s⁻¹
Kd [9]: 61.4 nM
koff [9]: 0.0299 s⁻¹
kon [9]: 487000 M⁻¹ s⁻¹

Source: patent US20140120555A1 (PIERRE FABRE MEDICAMENT, published 2014)
